Assay results as given in the supplement of paper PMC7877785.
± gives the uncertainty stated by the source.

Experiment: self-splicing fitness, log relative to wild type (ln ratio); higher = more splicing; Tetrahymena group I intron in knt gene, E. coli kanamycin selection, DiMSum; sequences stand for … in CUCUCU…GGAGGGAAAAGUUAUCAGGCAUGCACCUGGUAGCUAGUCUUUAAACCAAUAGAUUGCAUCGGUUUAAAAGGCAAGACCGUCAAAUUGCGGGAAAGGGGUCAACAGCCGUUCAGUACCAAGUCUCAGGGGAAACUUUGAGAUGGCCUUGCAAAGGGUAUGGUAAUAAGCUGACGGACAUGGUCCUAACCACGCAGCCAAGUCCUAAGUCAACAGAUCUUCUGUUGAUAUGGAUGCAGUUCACAGACUAAAUGUCGGUCGGGGAAGAUGUAUUCUUCUCAUAAGAUAUAGUCGGACCUCUCCUUAAUGGGAGCUAGCGGAUGAAGUGAUGCAACACUGGAGCCGCUGGGAACUAAUUUGUAUGCGAAAGUAUAUUGAUUAGUUUUGGAGUACUCGUGGUCG
How it was run: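 A randomised library covering all eight P1ex-region intron nucleotides was built with the intron in the knt kanamycin-resistance gene on pET-22b(+) and held in E. coli BL21(DE3). Cells were grown overnight at 37°C or 30°C on LB agar, with or without 25 μg/mL kanamycin, plus 100 μg/mL carbenicillin, 50 μM IPTG and 0.2% rhamnose, and pooled colonies were amplicon-sequenced on an Illumina HiSeq 2500. DiMSum fitness is the error-weighted combination of wild-type-normalised replicate fold changes, kanamycin versus none.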

| Sequence | self-splicing fitness (ln) (30 °C) | self-splicing fitness (ln) (37 °C) |
| --- | --- | --- |
| CCCAAGCAAUAUUACGAUCA | -3.67 ± 0.26 | -2.57 ± 0.16 |
| CCCAAGCAAUAUUACGAUCG | -3.46 ± 0.19 | -2.93 ± 0.19 |
| CCCAAGCAAUAUUACGAUGG | -2.89 ± 0.13 | -1.99 ± 0.13 |
| CCCAAGCAAUAUUACGCAUG | -3.29 ± 0.2 | -2.34 ± 0.22 |
| CCCAAGCAAUAUUACGCCGG | -3.22 ± 0.29 | -2.35 ± 0.32 |
| CCCAAGCAAUAUUACGCGUG | -3.31 ± 0.12 | -3.1 ± 0.18 |
| CCCAAGCAAUAUUACGGAGA | – | -1.03 ± 0.17 |
| CCCAAGCAAUAUUACGGCAU | -3.63 ± 0.16 | -2.84 ± 0.17 |
| CCCAAGCAAUAUUACGGGGC | -4.7 ± 0.39 | -3.08 ± 0.27 |
| CCCAAGCAAUAUUACGGUCG | -2.3 ± 0.094 | -0.827 ± 0.094 |
| CCCAAGCAAUAUUACGUAAU | -4.69 ± 0.17 | -2.97 ± 0.19 |
| CCCAAGCAAUAUUACGUCCG | -3.6 ± 0.43 | -2.45 ± 0.3 |
| CCCAAGCAAUAUUACGUGAU | -3.67 ± 0.13 | -2.45 ± 0.16 |
| CCCAAGCAAUAUUACGUUUU | -3.95 ± 0.18 | -3.26 ± 0.2 |
| CCCCAGCAAUAUUACGACCA | -2.81 ± 0.18 | -1.43 ± 0.16 |
| CCCCAGCAAUAUUACGAGAA | -3.4 ± 0.29 | -2.37 ± 0.23 |
| CCCCAGCAAUAUUACGAGCU | -3.85 ± 0.19 | -2.85 ± 0.2 |
| CCCCAGCAAUAUUACGAUAA | – | -1.49 ± 0.22 |
| CCCCAGCAAUAUUACGAUCG | -2.85 ± 0.13 | -0.917 ± 0.14 |
| CCCCAGCAAUAUUACGCCAC | -3.09 ± 0.13 | -0.923 ± 0.16 |
| CCCCAGCAAUAUUACGCCCA | -2.11 ± 0.26 | -1.37 ± 0.25 |
| CCCCAGCAAUAUUACGCUAC | -2.29 ± 0.17 | -2.05 ± 0.22 |

| Sequence | self-splicing fitness (ln) (30 °C) | self-splicing fitness (ln) (37 °C) |
| --- | --- | --- |
| CCCCAGCAAUAUUACGGAUA | -3.92 ± 0.24 | -2.65 ± 0.16 |
| CCCCAGCAAUAUUACGGGGC | -2.95 ± 0.1 | -3.43 ± 0.17 |
| CCCCAGCAAUAUUACGGUAC | -3.84 ± 0.25 | -2.66 ± 0.21 |
| CCCCAGCAAUAUUACGGUCC | -3.86 ± 0.18 | -2.9 ± 0.27 |
| CCCCAGCAAUAUUACGUAAA | -3.91 ± 0.17 | -2.89 ± 0.26 |
| CCCCAGCAAUAUUACGUAAG | -3.18 ± 0.12 | -1.33 ± 0.12 |
| CCCCAGCAAUAUUACGUAAU | -3.53 ± 0.11 | -1.67 ± 0.11 |
| CCCCAGCAAUAUUACGUCGC | -3.65 ± 0.18 | -2.34 ± 0.2 |
| CCCCAGCAAUAUUACGUCUG | -3.45 ± 0.16 | -2.04 ± 0.14 |
| CCCCAGCAAUAUUACGUGGG | -3.83 ± 0.12 | -2.81 ± 0.14 |
| CCCCAGCAAUAUUACGUGUA | -3.17 ± 0.11 | -2.75 ± 0.13 |
| CCCCAGCAAUAUUACGUUAC | -4.86 ± 0.46 | -2.37 ± 0.28 |
| CCCCAGCAAUAUUACGUUGU | -3.93 ± 0.12 | -2.77 ± 0.13 |
| CCCGAGCAAUAUUACGACGA | -3.44 ± 0.43 | -1.6 ± 0.2 |
| CCCGAGCAAUAUUACGAGUA | -3.01 ± 0.16 | -2.37 ± 0.14 |
| CCCGAGCAAUAUUACGCAUA | -3.7 ± 0.43 | -2.06 ± 0.21 |
| CCCGAGCAAUAUUACGCCAA | -3.35 ± 0.31 | -2.12 ± 0.26 |
| CCCGAGCAAUAUUACGCCUC | – | -1.77 ± 0.34 |
| CCCGAGCAAUAUUACGCGCA | -3.47 ± 0.34 | -1.28 ± 0.3 |
| CCCGAGCAAUAUUACGCGUU | -4.43 ± 0.3 | -2.22 ± 0.28 |
| CCCGAGCAAUAUUACGCUGU | -4.16 ± 0.31 | -2.62 ± 0.27 |
